Measured values as given in patent US20110256132A1 (published 2011).
Like-named read-outs stand apart in the source and are kept apart here.

How the values were obtained:
[1] = molecular target: T1, mature myostatin (recombinant, dimeric) (mouse polyprotein used for in-house …, UniProt O08689 268-376); assay: BIAcore, low density myostatin surface
T1 construct: also called GDF-8; recombinant myostatin
T1 sequence: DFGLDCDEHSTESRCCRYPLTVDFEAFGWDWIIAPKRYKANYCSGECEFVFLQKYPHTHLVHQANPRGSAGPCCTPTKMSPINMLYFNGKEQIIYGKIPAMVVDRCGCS

[2] = molecular target: T1, mature myostatin (recombinant, dimeric); assay: BIAcore, low density myostatin surface, methods as in 4.3
[3] = molecular target: T1, mature myostatin (recombinant, dimeric); assay: myostatin binding ELISA after 48 h at 37 C in PBS (Examples 5.2, 4.2), A490
[4] = molecular target: T1, mature myostatin (recombinant, dimeric); assay: cell-based or functional assay
[5] = molecular target: T1, mature myostatin (recombinant, dimeric); assay: ELISA: inhibition of 2 nM biotinylated myostatin binding to plate-coated ActRIIb, mean IC50
Description: Recombinant soluble ActRIIb (R&D Systems 339-RBB) was coated in wells of an ELISA plate at 1 μg/ml in carbonate buffer overnight at 4° C. Plates were blocked (see Block solution above at 2.3) and washed following standard ELISA protocols. In parallel, 2 nM biotinylated myostatin (in-house, as described in 1.1, biotinylated material) was pre-incubated with an antibody dilution series consisting of 10B3, 10B3C, and a negative control (IgG1 isotype control) for 2 hours at 37° C. The biotinylated myostatin:antibody reactions were then added to the ActRIIb coated plate for 1 hour at 37° C. Standard wash procedures were followed prior to addition of 1:1000 diluted streptavidin-HRP conjugate (Dako P0397) and a further 37° C. incubation for 1 hour. Plates were again washed and assayed at absorbance 490 nm following OPD substrate (Sigma) and acid stop solution treatment Inhibition curves and IC50 values for the inhibition of myostatin activity are shown in FIG. 5 and Table 8 respectively.

[6] = molecular target: T1, mature myostatin (recombinant, dimeric); assay: myostatin binding ELISA with purified antibody (made in CHOE1a), 10 ng/well recombinant myostatin coated, anti-human kappa HRP, A490 (Examples 4.1, 4.2)
Description: The myostatin binding ELISA was carried out approximately according to this protocol. A 96-well ELISA plate was coated at 4° C. overnight with 10 ng/well recombinant myostatin. This plate was then washed 3-times in wash buffer (PBS, 0.1% Tween-20). The wells were blocked for 1 hour at room temperature with block solution (PBS, 0.1% Tween-20+1% bovine serum albumin [BSA]), before washing 3-times in wash buffer. Antibodies were then titrated out to a suitable concentration range (approximately 100 to 0.001 μg/ml), added to the plate and incubated for 1 hour at room temperature. The plate was then washed 3-times in wash buffer. An anti-mouse IgG HRP-conjugated antibody (P0260 by Dako, this reagent was used according to the manufacturer's instructions) was used to detect binding of mouse antibodies, such as 10B3. An anti-human kappa light chain HRP-conjugated antibody (A7164 by Sigma Aldridge, this reagent was used according to the manufacturer's instructions) was used to detect binding of humanized or chimeric antibodies, such as 10B3 chimera or H0L0. The plate was then washed 3-times in wash buffer and developed with an OPD substrate (from Sigma, used according to the manufacturer's instructions) and read at 490 nm on a plate reader.

[7] = molecular target: T1, mature myostatin (recombinant, dimeric); assay: cell-based or functional assay; remark: listed apart in the source
[8] = molecular target: T1, mature myostatin (recombinant, dimeric); assay: BIAcore, high density myostatin surface, antibody analyte, 1:1 model (poor fits)
Description: (§1) Purified H0L0, H1L2 and H2L2 bound recombinant myostatin by BIAcore™ Recombinant myostatin was immobilised at three different densities (low, medium and high, to give R-max values of approximately 35, 120 and 350 RU's respectively) onto a BIAcore™ chip. Antibodies were passed over at 256, 64, 16, 4 and 1 nM. 0 nM antibody was used for double referencing and data was fitted to the 1:1 model.

[9] = molecular target: T1, mature myostatin (recombinant, dimeric); assay: ELISA, plate-coated myostatin (R&D Systems), mean EC50
Description: 10B3 and 10B3 chimera (10B3C) bound myostatin (R&D Systems, 788-G8-010/CF) in a sandwich ELISA. Plates were coated with myostatin at 10 ng/well and blocked with Block solution (PBS, 0.1% TWEEN and 1% BSA). Following washing (PBS, 0.1% TWEEN), antibody was incubated at 37° C. for 2 hours over a dilution series and plates washed again prior to incubation at 37° C. for 1 hour with anti-mouse HRP or anti-human HRP (Dako, P0161 & Sigma, A-8400, respectively). Plates were again washed and OPD substrate (Sigma, P9187) added until colourometric reaction occurred and the reaction stopped by the addition of H₂SO₄.

[10] = molecular target: T1, mature myostatin (recombinant, dimeric); assay: cell-based or functional assay; remark: listed apart in the source
[11] = molecular target: T1, mature myostatin (recombinant, dimeric); assay: BIAcore T100, antibody captured on protein A (C1 chip), myostatin analyte, all curves Bivalent model
Description: (§2) The affinity of 10B3 mouse parental and 10B3C for recombinant myostatin was assessed by BIAcore™ (surface plasmon resonance) analysis. Analysis was carried out by the use of a capture surface: anti-mouse IgG was coupled to a C1 chip by primary amine coupling for 10B3 mouse parental; and a protein A surface was created on a C1 chip by primary amine coupling for 10B3 chimera.
(§3) After capture, recombinant myostatin was passed over the surface at 64 nM, 16 nM, 4 nM, 1 nM, 0.25 nM and 0.0625 nM, with a buffer injection (i.e. 0 nM) used for double referencing. There was a regeneration step between each analyte injection, after which the new antibody capture event occurred before the next injection of myostatin. The data was analysed using both the 1:1 model and the Bivalent model inherent to the T100 machines analysis software (see Table 6). Both capture surfaces could be regenerated using 100 mM phosphoric acid, the work was carried out using HBS-EP as the running buffer and using 25° C. as the analysis temperature.

[12] = molecular target: T1, mature myostatin (recombinant, dimeric); assay: cell-based or functional assay; remark: listed apart in the source
[13] = molecular target: T1, mature myostatin (recombinant, dimeric); assay: BIAcore, medium density myostatin surface, antibody analyte, 1:1 model (poor fits)
Description: as §1

[14] = molecular target: T1, mature myostatin (recombinant, dimeric); assay: cell-based or functional assay; remark: listed apart in the source
[15] = molecular target: T1, mature myostatin (recombinant, dimeric); assay: BIAcore T100, antibody captured on protein A (C1 chip), myostatin analyte, all curves 1:1 model
Description: as §2, §3

[16] = molecular target: T1, mature myostatin (recombinant, dimeric); assay: BIAcore, low density myostatin surface, antibody analyte, 1:1 model
Description: as §1

B1: H2L2 N54Q (H2L2-N54Q) (antibody, human IgG1, kappa, V domains shown)
VH: QVQLVQSGAEVKKPGASVKVSCKASGYSFTGYFMHWVRQAPGQGLEWMGNIYPYQGVSNYNQRFKARVTMTTDTSTSTAYMELRSLRSDDTAVYYCARRYYYGTGPADWYFDVWGQGTLVTVSS
VL: DIQMTQSPSSLSASVGDRVTITCKASQDINSYLSWFQQKPGKAPKSLIYRANRLVDGVPSKFSGSGSGTDYTLTISSLQPEDFATYYCLQCDEFPLTFGQGTKLEIKR
B1 was tested. Which “fold loss in affinity against H2L2” value [1] did it give?
Its value is ≥ 2 fold.

And the Kd [2]?
Its Kd is 28 nM.

And the “EC50 (read off the curve)” value [3]?
The value was ~1 nM.

And the “Mean IC50, A204 in vitro activity assay” value [4]?
The value was 12 nM.

B2: 10B3 chimera (antibody, human IgG1, kappa, V domains shown)
VH: EVQLQQSGPELVKPGASVKISCKASGYSFTGYFMHWVKQSHGNILDWIGNIYPYNGVSNYNQRFKAKATLTVDKSSSTAYMELRSLTSEDSAVYYCARRYYYGTGPADWYFDVWGTGTLVTVSS
VL: DIKMTQSPSSMYASLRERVTITCKASQDINSYLSWFQQKPGKSPKTLIYRANRLVDGVPSRFSGSGSGQDYSLTISSLEYEDMGIYYCLQCDEFPLTFGAGTKLELKR
notes: Mouse variable regions on human IgG1/kappa wild type constant regions; also called HCLC; HcLc
For B2, which IC50 [5] is on record?
Its IC50 is 0.138 µg/mL.

What about the “EC50 (read off the curve)” value [6] of the same binder?
The value was ~0.1 µg/mL.

What about the “Mean IC50, A204 in vitro activity assay” value [7] of the same binder?
Its value is 5.1 nM.

What about the Kd [8] of the same binder?
Its Kd is 0.882 nM.

What about the koff [8] of the same binder?
Its koff is 0.000218 s⁻¹.

What about the kon [8] of the same binder?
The kon was 248000 M⁻¹ s⁻¹.

And the Kd [2]?
Its Kd is 4.44 nM.

And the EC50 [9]?
Its EC50 is 0.049 µg/mL.

And the “Mean IC50, myostatin responsive reporter gene assay (A204 cells, luciferase)” value [10]?
The value was 6.2 nM.

What about the Kd [11] of the same binder?
The Kd was 3.6 nM.

What about the “Mean IC50, A204 in vitro activity assay (5 nM myostatin)” value [12] of the same binder?
The value was 3.53 nM.

What about the Kd [13] of the same binder?
The Kd was 1.35 nM.

And the koff [13]?
The koff was 0.000559 s⁻¹.

What about the kon [13] of the same binder?
Its kon is 413000 M⁻¹ s⁻¹.

And the “Mean IC50, A204 in vitro activity assay” value [4]?
The value was 8.45 nM.

What about the “Mean IC50, A204 in vitro activity assay” value [14] of the same binder?
Its value is 3.57 nM.

What about the Kd [15] of the same binder?
Its Kd is 0.088 nM.

And the Kd [16]?
Its Kd is 1.61 nM.

And the koff [16]?
The koff was 0.000967 s⁻¹.

And the kon [16]?
Its kon is 599000 M⁻¹ s⁻¹.
